Data: article PMC3411929 (Journal of structural biology, 2012)

Target: the molecule itself
Test: SEC

B1: human spastin amino acids 228-616 containing the E442Q mutation (domain or fragment, UniProt Q9UBP0 228-616, looked up)
chain: ESGAVPKRKDPLTHTSNSLPRSKTVMKTGSAGLSGHHRAPSYSGLSMVSGVKQGSGPAPTTHKGTPKTNRTNKPSTPTTATRKKKDLKNFRNVDSNLANLIMNEIVDNGTAVKFDDIAGQDLAKQALQEIVILPSLRPELFTGLRAPARGLLLFGPPGNGKTMLAKAVAAESNATFFNISAASLTSKYVGEGEKLVRALFAVARELQPSIIFIDQVDSLLCERREGEHDASRRLKTEFLIEFDGVQSAGDDRVLVMGATNRPQELDEAVLRRFIKRVYVSLPNEETRLLLLKNLLCKQGSPLTQKELAQLARMTDGYSGSDLTALAKDAALGPIRELKPEQVKNMSASEMRNIRLSDFTESLKKIKRSVSPQTLEAYIRWNKDFGDTTV
stoichiometry N: 6
